One substance from patent publication US20060239990 can be followed below.

The target of this series is GST-Stat3 fusion protein (UniProt P42227).
Sequence of GST-Stat3 fusion protein (P42227 whole entry, the tested form may be a part): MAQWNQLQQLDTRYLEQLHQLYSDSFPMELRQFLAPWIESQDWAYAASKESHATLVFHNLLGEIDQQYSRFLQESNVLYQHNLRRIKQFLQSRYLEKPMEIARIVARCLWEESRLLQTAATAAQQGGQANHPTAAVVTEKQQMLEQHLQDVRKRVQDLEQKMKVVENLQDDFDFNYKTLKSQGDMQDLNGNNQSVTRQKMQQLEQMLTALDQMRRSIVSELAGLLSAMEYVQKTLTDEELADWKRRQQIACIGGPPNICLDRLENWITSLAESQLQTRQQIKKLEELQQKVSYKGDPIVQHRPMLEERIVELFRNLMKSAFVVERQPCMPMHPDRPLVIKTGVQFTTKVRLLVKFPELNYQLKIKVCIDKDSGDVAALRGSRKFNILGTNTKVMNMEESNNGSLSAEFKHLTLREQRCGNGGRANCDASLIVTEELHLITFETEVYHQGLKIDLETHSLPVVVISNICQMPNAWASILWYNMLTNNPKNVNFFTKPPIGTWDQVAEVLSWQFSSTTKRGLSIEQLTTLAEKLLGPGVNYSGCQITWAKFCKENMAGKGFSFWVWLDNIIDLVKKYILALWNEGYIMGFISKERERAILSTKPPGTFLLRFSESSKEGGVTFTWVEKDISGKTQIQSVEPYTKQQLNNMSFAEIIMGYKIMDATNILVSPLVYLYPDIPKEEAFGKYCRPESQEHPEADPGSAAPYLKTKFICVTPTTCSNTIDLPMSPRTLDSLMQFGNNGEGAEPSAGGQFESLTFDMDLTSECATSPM

With “mutated mouse PRMT2-Flag lacking functional Ado-Met domain (alanine for 145-GCGTG-149)”, the “in vitro methylation with [3H]-AdoMet” value is “transfection of neither vector alone nor mutated PRMT2-Flag cDNA induced methylation of GST-Stat3 (FIG. 20A, lanes 4 and 5)”.
